# US7125658B2, “Small protein that interacts with a ribonucleotide reductase subunit and uses thereof” (The Trustees of Columbia University in the City of New York, priority 1998, dated 2006)
# T1: yeast Rnr1p (Saccharomyces cerevisiae, UniProt P21524)
# T1 construct: made in house; host or cells: E. coli BL21 (DE3), pET3a
# T1 sequence (P21524 1-888): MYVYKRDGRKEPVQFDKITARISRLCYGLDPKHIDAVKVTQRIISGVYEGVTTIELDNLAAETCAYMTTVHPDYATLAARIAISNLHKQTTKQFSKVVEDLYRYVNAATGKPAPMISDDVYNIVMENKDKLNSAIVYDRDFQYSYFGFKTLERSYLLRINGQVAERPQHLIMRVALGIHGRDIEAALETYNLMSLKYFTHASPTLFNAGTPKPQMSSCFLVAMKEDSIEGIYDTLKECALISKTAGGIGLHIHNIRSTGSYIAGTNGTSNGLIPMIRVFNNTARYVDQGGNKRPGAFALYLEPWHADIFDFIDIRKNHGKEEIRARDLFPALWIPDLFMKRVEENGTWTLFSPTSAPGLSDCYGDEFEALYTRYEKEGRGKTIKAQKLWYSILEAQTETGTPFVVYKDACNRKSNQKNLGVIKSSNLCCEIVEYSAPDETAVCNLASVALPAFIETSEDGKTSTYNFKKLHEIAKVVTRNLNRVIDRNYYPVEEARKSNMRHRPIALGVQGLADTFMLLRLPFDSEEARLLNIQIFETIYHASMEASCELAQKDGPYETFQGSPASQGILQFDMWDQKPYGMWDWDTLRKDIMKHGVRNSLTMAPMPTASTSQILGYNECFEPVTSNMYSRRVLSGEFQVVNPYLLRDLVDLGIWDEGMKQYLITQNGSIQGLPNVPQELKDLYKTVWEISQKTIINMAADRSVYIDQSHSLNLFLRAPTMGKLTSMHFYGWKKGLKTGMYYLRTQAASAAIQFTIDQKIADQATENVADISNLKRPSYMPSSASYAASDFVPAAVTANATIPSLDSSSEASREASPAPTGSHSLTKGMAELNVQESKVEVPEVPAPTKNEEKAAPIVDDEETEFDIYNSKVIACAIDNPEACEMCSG
# T2: yeast RNR (Saccharomyces cerevisiae, UniProt P21524)
# T2 construct: made in house; host or cells: E. coli BL21 (DE3), pET3a
# T2 sequence (P21524 1-888): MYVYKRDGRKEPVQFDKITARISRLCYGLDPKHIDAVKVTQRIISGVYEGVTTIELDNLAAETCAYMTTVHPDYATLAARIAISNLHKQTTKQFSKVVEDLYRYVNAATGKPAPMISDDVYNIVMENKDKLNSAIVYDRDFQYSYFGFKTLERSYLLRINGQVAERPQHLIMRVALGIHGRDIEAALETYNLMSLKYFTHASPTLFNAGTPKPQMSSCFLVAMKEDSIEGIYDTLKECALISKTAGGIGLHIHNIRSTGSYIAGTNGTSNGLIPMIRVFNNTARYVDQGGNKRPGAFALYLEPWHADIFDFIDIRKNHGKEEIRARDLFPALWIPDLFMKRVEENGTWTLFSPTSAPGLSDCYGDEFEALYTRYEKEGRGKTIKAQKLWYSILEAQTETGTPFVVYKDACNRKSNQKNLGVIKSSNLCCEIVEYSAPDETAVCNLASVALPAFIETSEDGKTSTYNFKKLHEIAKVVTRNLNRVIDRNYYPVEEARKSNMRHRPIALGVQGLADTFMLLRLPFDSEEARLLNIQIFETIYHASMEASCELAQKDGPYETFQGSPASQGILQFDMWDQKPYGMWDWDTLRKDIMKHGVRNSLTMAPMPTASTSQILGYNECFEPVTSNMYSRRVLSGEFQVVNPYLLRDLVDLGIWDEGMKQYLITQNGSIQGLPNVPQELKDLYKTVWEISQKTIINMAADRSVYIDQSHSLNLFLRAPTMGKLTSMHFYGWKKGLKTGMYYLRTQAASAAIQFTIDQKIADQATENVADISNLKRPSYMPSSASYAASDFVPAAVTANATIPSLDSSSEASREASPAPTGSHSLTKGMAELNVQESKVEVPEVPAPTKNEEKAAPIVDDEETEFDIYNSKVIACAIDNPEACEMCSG
# Experiments:
# [1] = target: T1, yeast Rnr1p; experiment: sucrose gradient centrifugation of Rnr1p with Sml1p; type: binding; conditions: 500 μg Rnr1p, 90 μg Sml1 protein, 0.1 mM dTTP
# Description: FIG. 11 Sucrose gradient centrifugation of yeast Rnr1p in the absence or in the presence of dTTP, with or without Sml1p. Sedimentation (from the right to the left) was performed as described in Materials and Methods. Catalase (s20,w=11.4 S) sedimented in fraction 14 (arrow). Thick line, Rnr1 protein sedimented alone without dTTP or Sml1p. The two peaks represent the dimer (fraction 21) and monomer (fraction 25) positions in the gradient. Hatched line, Rnr1p sedimented in the presence of dTTP. Most of the material now sedimented as tetramers (fraction 5) or dimers (fraction 21). Note that the small peak sedimenting at fraction 26 represents an impurity in the Rnr1p preparation (the band just below the R1 band in the gel insert). The sedimentation of this material is not affected by dTTP. […]
# Sucrose gradient centrifugation. […] Aliquots of each fraction were removed for spectrophotometric assay of catalase activity (20); protein concentration as determined by the Bradford method (21); or SDS-PAGE analysis.
# Interaction between yeast Rnr1 protein and Sml1 protein assayed by sucrose gradient centrifugation. […] To test if Sml1p binding to the Rnr1p might interfere with Rnr1p dimer formation and thereby inhibit RNR activity, we preincubated Rnr1p and Sml1p in the presence of the allosteric effector dTTP; we then analyzed the mixture on a sucrose gradient (FIG. 11). […]
# [2] = target: T2, yeast RNR; experiment: in vitro yeast ribonucleotide reductase CDP reduction assay; type: biochemical
# Description: FIG. 9 Inhibition of yeast RNR by Sml1p. A series of tubes containing yeast RNR ([…]) were incubated at 30° C. for 30 min in a final volume of 50 μl: 25 nmol of [^3H]CDP (specific activity 37000 cpm/nmol), 2 μmol of Tris-HCl, pH 7.6, 0.125 μmol of ATP, 0.32 μmol of MgCl^2, 0.5 μmol of dithiothreitol, 5 μmol of KCl and 1 nmol of FeCl3. In addition, the tubes contained increasing amounts of Sml1p. After incubation, the samples were processed as described earlier to obtain the amount of dCDP formed (22).
# FIG. 10 Inhibition of yeast RNR by nonapeptides corresponding to the C terminal ends of Sml1p, Rnr2p or Rnr4p. […] 9 in the presence of increasing amounts of nonapeptide. Sml1 peptide, ã; Rnr2 peptide, o; Rnr4 peptide, x.
# Inhibition of yeast ribonucleotide reductase by the Sml1 protein. Recombinant yeast ribonucleotide reductase was assayed for activity using a CDP reduction assay, with ATP as a positive effector in the presence of increasing amounts of Sml1 protein (FIG. 9). A molar ratio of 1:1 between Rnr1p monomer (MW 100000) and Sml1p (MW 11800) gave about 50% inhibition.
# Inhibition of yeast ribonucleotide reductase by nonapeptides corresponding to the C-terminal ends of Sml1p, Rnr2p or Rnr4p. […] Since such peptides are known to inhibit RNR activity by binding to the R1 protein and preventing R1/R2 interaction, we wanted to study the influence of a C-terminal nonapeptide of Sml1p on yeast RNR activity.
molecule,measurement,setting,value
"Sml1p: 104 amino acid yeast protein encoded by YML058w (SML1) that binds Rnr1 and inhibits ribonucleotide reductase; recombinant, expressed in E. coli (protein) MQNSQDYFYAQNRCQQQQAPSTLRTVTMAEFRRVPLPPMAEVPMLSTQNSMGSSASASASSLEMWEKDLEERLNSIDHDMNNNKFGSGELKSMFNQGKVEEMDF",effect on Rnr1p monomer/dimer equilibrium,[1],did not influence the monomer/dimer equilibrium
same,"efficiency in inhibiting yeast RNR activity relative to its C terminal nonapeptide, on a molar basis",[2],about 200 times
same,type of inhibition versus Rnr2p/Rnr4p heterodimer,"[2]; Rnr2p/Rnr4p 1 to 32 μg, Rnr1p 2 μg, Sml1p 0, 0.2 and 2 μg",noncompetitive inhibition
same,inhibition of yeast RNR,"[2]; molar ratio of 1:1 between Rnr1p monomer and Sml1p, CDP reduction, ATP as positive effector",about 50%
